Columns and labels:
Settings in all cases: remark: other sources report otherwise
hMPV043 (hMPV A), Q6WB98 = assay: BLI, 50C stress
hMPV066 (hMPV A), Q6WB98 = assay: BLI, 50C stress
[1] = target: hMPV A F WT Control (hMPV A), Q6WB98; assay: BLI, 50C stress
hMPV054 (hMPV A), Q6WB98 = assay: BLI, 50C stress
hMPV060 (hMPV A), Q6WB98 = assay: BLI, 50C stress
hMPV063 (hMPV A), Q6WB98 = assay: BLI, 50C stress
hMPV068 (hMPV A), Q6WB98 = assay: BLI, 50C stress
hMPV048 (hMPV A), Q6WB98 = assay: BLI, 50C stress
hMPV055 (hMPV A), Q6WB98 = assay: BLI, 50C stress
hMPV077 (hMPV A), Q6WB98 = assay: BLI, 50C stress
hMPV058 (hMPV A), Q6WB98 = assay: BLI, 50C stress
hMPV052 (hMPV A), Q6WB98 = assay: BLI, 50C stress
hMPV061 (hMPV A), Q6WB98 = assay: BLI, 50C stress
hMPV062 (hMPV A), Q6WB98 = assay: BLI, 50C stress
hMPV071 (hMPV A), Q6WB98 = assay: BLI, 50C stress
hMPV049 (hMPV A), Q6WB98 = assay: BLI, 50C stress
hMPV067 (hMPV A), Q6WB98 = assay: BLI, 50C stress
hMPV050 (hMPV A), Q6WB98 = assay: BLI, 50C stress
hMPV075 (hMPV A), Q6WB98 = assay: BLI, 50C stress
hMPV053 (hMPV A), Q6WB98 = assay: BLI, 50C stress
hMPV044 (hMPV A), Q6WB98 = assay: BLI, 50C stress
hMPV047 (hMPV A), Q6WB98 = assay: BLI, 50C stress
hMPV046 (hMPV A), Q6WB98 = assay: BLI, 50C stress
hMPV059 (hMPV A), Q6WB98 = assay: BLI, 50C stress
hMPV069 (hMPV A), Q6WB98 = assay: BLI, 50C stress
hMPV078 (hMPV A), Q6WB98 = assay: BLI, 53C stress
hMPV085 (hMPV A), Q6WB98 = assay: BLI, 53C stress
hMPV084 (hMPV A), Q6WB98 = assay: BLI, 53C stress
[2] = target: hMPV A F WT Control (hMPV A), Q6WB98; assay: BLI, 53C stress
hMPV097 (hMPV A), Q6WB98 = assay: BLI, 53C stress
hMPV079 (hMPV A), Q6WB98 = assay: BLI, 53C stress
hMPV088 (hMPV A), Q6WB98 = assay: BLI, 53C stress
hMPV087 (hMPV A), Q6WB98 = assay: BLI, 53C stress
hMPV089 (hMPV A), Q6WB98 = assay: BLI, 53C stress
hMPV086 (hMPV A), Q6WB98 = assay: BLI, 53C stress
hMPV090 (hMPV A), Q6WB98 = assay: BLI, 53C stress
hMPV081 (hMPV A), Q6WB98 = assay: BLI, 53C stress
hMPV083 (hMPV A), Q6WB98 = assay: BLI, 53C stress
hMPV082 (hMPV A), Q6WB98 = assay: BLI, 53C stress

B1: MPE8 mAb (antibody, V domains shown)
VH: EVQLVESGGGLVKPGGSLRLSCAASGFTFSSYSMNWVRQAPGKGLEWVSSISASSSYSDYADSAKGRFTISRDNAKTSLFLQMNSLRAEDTAIYFCARARATGYSSITPYFDIWGQGTLVTVSS
VL: QSVVTQTPSVSGAPGQRVTISCTGSSSNIGAGYDVHWYQQLPGTAPKLLIYDNNNRPSGVPDRFSASKSGTSASLAITGLQAEDEADYYCQSYDRNLSGVFGTGTKVTVL
Response Shift (hMPV043 (hMPV A), Q6WB98): 0.501 nm
Response Shift (hMPV066 (hMPV A), Q6WB98): 0.666 nm
Response Shift [1]: 0.174 nm
Response Shift (hMPV054 (hMPV A), Q6WB98): 0.381 nm
Response Shift (hMPV060 (hMPV A), Q6WB98): 0.712 nm
Response Shift (hMPV063 (hMPV A), Q6WB98): 0.57 nm
Response Shift (hMPV068 (hMPV A), Q6WB98): 0.194 nm
Response Shift (hMPV048 (hMPV A), Q6WB98): 0.377 nm
Response Shift (hMPV055 (hMPV A), Q6WB98): 0.098 nm
Response Shift (hMPV077 (hMPV A), Q6WB98): 0.472 nm
Response Shift (hMPV058 (hMPV A), Q6WB98): 0.403 nm
Response Shift (hMPV052 (hMPV A), Q6WB98): 0.482 nm
Response Shift (hMPV061 (hMPV A), Q6WB98): 0.537 nm
Response Shift (hMPV062 (hMPV A), Q6WB98): 0.253 nm
Response Shift (hMPV071 (hMPV A), Q6WB98): 0.671 nm
Response Shift (hMPV049 (hMPV A), Q6WB98): 0.343 nm
Response Shift (hMPV067 (hMPV A), Q6WB98): 0.571 nm
Response Shift (hMPV050 (hMPV A), Q6WB98): 0.14 nm
Response Shift (hMPV075 (hMPV A), Q6WB98): 0.506 nm
Response Shift (hMPV053 (hMPV A), Q6WB98): 0.422 nm
Response Shift (hMPV044 (hMPV A), Q6WB98): 0.722 nm
Response Shift (hMPV047 (hMPV A), Q6WB98): -0.024 nm
Response Shift (hMPV046 (hMPV A), Q6WB98): 0.412 nm
Response Shift (hMPV059 (hMPV A), Q6WB98): 0.344 nm
Response Shift (hMPV069 (hMPV A), Q6WB98): 0.355 nm
Response Shift (hMPV078 (hMPV A), Q6WB98): 0.939 nm
Response Shift (hMPV085 (hMPV A), Q6WB98): 0.889 nm
Response Shift (hMPV084 (hMPV A), Q6WB98): 0.908 nm
Response Shift [2]: 0.096 nm
Response Shift (hMPV097 (hMPV A), Q6WB98): 0.935 nm
Response Shift (hMPV079 (hMPV A), Q6WB98): 0.861 nm
Response Shift (hMPV088 (hMPV A), Q6WB98): 0.937 nm
Response Shift (hMPV087 (hMPV A), Q6WB98): 0.903 nm
Response Shift (hMPV089 (hMPV A), Q6WB98): 0.928 nm
Response Shift (hMPV086 (hMPV A), Q6WB98): 0.86 nm
Response Shift (hMPV090 (hMPV A), Q6WB98): 0.909 nm
Response Shift (hMPV081 (hMPV A), Q6WB98): 0.915 nm
Response Shift (hMPV083 (hMPV A), Q6WB98): 0.796 nm
Response Shift (hMPV082 (hMPV A), Q6WB98): 0.985 nm

Reference: US20240252614A1
